Assay results published in patent US20090175866A1, “TREATMENT OF B-CELL MALIGNANCIES” (priority 2004, published 2009).
Positions count from the first letter of the chain named.

B1: PRO-001 Fab (Fab, V domains shown)
VH: QVQLQQSGPGLVKPSQTLSLTCAISGDSVSSNSAAWNWIRQSPGRGLEWLGRTYYRSKWYNDYAVSVKSRITINPDTSKNQFSLQLNSVTPEDTAVYYCARSYYPDFDYWGQGTLVTVSS
VL: DIELTQPPSVSVAPGQTARISCSGDALGDKYASWYQQKPGQAPVLVIYDDSDRPSGIPERFSGSNSGNTATLTISGTQAEDEADYYCQSYDGPDLWVFGGGTKLTVLGQ
B2: PRO-026 (Fab, V domains shown)
VH: QVQLVQSGAEVKKPGASVKVSCKASGYTFTSYYMHWVRQAPGQGLEWMGWINPNSGGTNYAQKFQGRVTMTRDTSISTAYMELSSLRSEDTAVYYCARGYWYAYFTYINYGYFDNWGQGTLVTVSS
VL: DIALTQPASVSGSPGQSITISCTGTSSDVGGYNYVSWYQQHPGKAPKLMIYDVSNRPSGVSNRFSGSKSGNTASLTISGLQAEDEADYYCQSYDNNSDVVFGGGTKLTVLG
B3: PRO-029 (Fab, V domains shown)
VH: QVQLVQSGAEVKKPGASVKVSCKASGYTFTSYYMHWVRQAPGQGLEWMGWINPNSGGTNYAQKFQGRVTMTRDTSISTAYMELSSLRSEDTAVYYCARTWQYSYFYYLDGGYYFDIWGQGTLVTVSS
VL: DIVLTQSPATLSLSPGERATLSCRASQSVSSSYLAWYQQKPGQAPRLLIYGASSRATGVPARFSGSGSGTDFTLTISSLEPEDFATYYCQQTNNAPVTFGQGTKVEIKR
B4: PRO-054 (Fab, V domains shown)
VH: QVQLVQSGAEVKKPGASVKVSCKASGYTFTSYYMHWVRQAPGQGLEWMGWINPNSGGTNYAQKFQGRVTMTRDTSISTAYMELSSLRSEDTAVYYCARNMAYTNYQYVNMPHFDYWGQGTLVTVSS
VL: DIELTQPPSVSVAPGQTARISCSGDALGDKYASWYQQKPGQAPVLVIYDDSDRPSGIPERFSGSNSGNTATLTISGTQAEDEADYYCQSYDYFKLVFGGGTKLTVLG
B5: PRO-055 (Fab, V domains shown)
VH: QVQLVQSGAEVKKPGASVKVSCKASGYTFTSYYMHWVRQAPGQGLEWMGWINPNSGGTNYAQKFQGRVTMTRDTSISTAYMELSSLRSEDTAVYYCARSMNSTMYWYLRRVLFDHWGQGTLVTVSS
VL: B2 VL with N95M, N96Y, S97N, D98Y, V99I
B6: PRO-002 (Fab, V domains shown)
VH: QVQLVQSGAEVKKPGASVKVSCKASGYTFTSYYMHWVRQAPGQGLEWMGWINPNSGGTNYAQKFQGRVTMTRDTSISTAYMELSSLRSEDTAVYYCARDFLGYEFDYWGQGTLVTVSS
VL: DIELTQPPSVSVAPGQTARISCSGDALGDKYASWYQQKPGQAPVLVIYDDSDRPSGIPERFSGSNSGNTATLTISGTQAEDEADYYCQSYDYSADYVFGGGTKLTVLG
B7: PRO-012 (Fab, V domains shown)
VH: QVQLKESGPALVKPTQTLTLTCTFSGFSLSTSGVGVGWIRQPPGKALEWLALIDWDDDKYYSTSLKTRLTISKDTSKNQVVLTMTNMDPVDTATYYCARYHSWYEMGYYGSTVGYMFDYWGQGTLVTVSS
VL: B4 VL with Y92F, F93D, K94F, L95A

Legend:
[1] = target: FGFR3-G394D expressed on B9 cells, P22607; test: cell-based or functional assay
[2] = target: FGFR3 (as measured by BIAcore, Table 1) (UniProt P22607); test: BIAcore
[3] = target: FGFR3 (as measured by BIAcore, Table 1) (UniProt P22607); test: BIAcore (receptor not given)

Sequence of FGFR3-G394D expressed on B9 cells, P22607 (P22607 23-806, stated change not applied): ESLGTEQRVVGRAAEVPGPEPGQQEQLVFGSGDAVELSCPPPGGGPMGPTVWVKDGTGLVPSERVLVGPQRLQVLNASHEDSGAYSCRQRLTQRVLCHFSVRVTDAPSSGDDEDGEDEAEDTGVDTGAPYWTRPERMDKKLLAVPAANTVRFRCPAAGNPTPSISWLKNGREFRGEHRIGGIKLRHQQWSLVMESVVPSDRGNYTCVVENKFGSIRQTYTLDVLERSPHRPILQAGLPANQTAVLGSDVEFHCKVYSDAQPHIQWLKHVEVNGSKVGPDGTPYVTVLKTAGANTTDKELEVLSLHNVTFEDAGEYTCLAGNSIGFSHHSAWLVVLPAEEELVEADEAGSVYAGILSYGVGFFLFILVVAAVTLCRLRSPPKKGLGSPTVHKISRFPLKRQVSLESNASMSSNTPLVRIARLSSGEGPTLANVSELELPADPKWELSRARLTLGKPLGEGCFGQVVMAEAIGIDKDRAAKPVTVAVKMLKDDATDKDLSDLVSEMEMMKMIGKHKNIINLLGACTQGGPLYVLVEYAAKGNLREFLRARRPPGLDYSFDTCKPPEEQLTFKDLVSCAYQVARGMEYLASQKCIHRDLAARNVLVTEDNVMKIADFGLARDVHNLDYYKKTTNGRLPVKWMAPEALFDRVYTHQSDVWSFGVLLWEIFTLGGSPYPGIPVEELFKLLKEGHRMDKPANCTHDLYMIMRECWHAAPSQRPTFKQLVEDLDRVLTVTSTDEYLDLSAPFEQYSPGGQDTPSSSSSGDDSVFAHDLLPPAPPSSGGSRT

| IC50 of FGF-stimulated growth of B9 cells expressing G394D-FGFR3 [1] | Kd [2] | koff [3] | Binder |
| --- | --- | --- | --- |
| 3 µg/mL | – | – | B1 |
| – | 4 nM | 0.0005 s⁻¹ | B2 |
| – | 6 nM | 0.0014 s⁻¹ | B3 |
| – | 3.7 nM | 0.002 s⁻¹ | B4 |
| – | 2.9 nM | 0.00074 s⁻¹ | B5 |
| – | 37 nM | 0.02 s⁻¹ | B6 |
| – | 14 nM | 0.0023 s⁻¹ | B7 |
